Experiment [1] has as its target T1, Human VEGFR2-Fc (Sino Biological) (human, UniProt P35968 20-764).
T1 construct: Bought; not shown: Fc part of a bought fusion protein
In words: ELISA, plate coated with human VEGFR2-Fc 1ug/ml, anti-His-HRP detection.

Experiment [2] concerns the target T2, hEGFR-Fc (Sino Biological) (human, UniProt P00533 25-645).
T2 construct: Bought; also called human EGFR; humans EGFR-Fc protein; not shown: Fc part of a bought fusion protein
In words: antigen binding activity, summary table; assay not named on the sheet.

Experiment [3] has as its target T3, human ErbB2/Her2-Fc (Acro biosystem) (human, UniProt P04626 23-652).
T3 construct: Bought; also called human HER2; not shown: Fc part of a bought fusion protein
In words: ELISA, plate coated with human ErbB2/Her2-Fc.

Experiment [4] concerns the target T4, human CEACAM5-Fc (novoprotein) (human, UniProt P06731 35-685, limits assumed).
T4 construct: Bought; not shown: Fc part of a bought fusion protein
T4 sequence (looked up): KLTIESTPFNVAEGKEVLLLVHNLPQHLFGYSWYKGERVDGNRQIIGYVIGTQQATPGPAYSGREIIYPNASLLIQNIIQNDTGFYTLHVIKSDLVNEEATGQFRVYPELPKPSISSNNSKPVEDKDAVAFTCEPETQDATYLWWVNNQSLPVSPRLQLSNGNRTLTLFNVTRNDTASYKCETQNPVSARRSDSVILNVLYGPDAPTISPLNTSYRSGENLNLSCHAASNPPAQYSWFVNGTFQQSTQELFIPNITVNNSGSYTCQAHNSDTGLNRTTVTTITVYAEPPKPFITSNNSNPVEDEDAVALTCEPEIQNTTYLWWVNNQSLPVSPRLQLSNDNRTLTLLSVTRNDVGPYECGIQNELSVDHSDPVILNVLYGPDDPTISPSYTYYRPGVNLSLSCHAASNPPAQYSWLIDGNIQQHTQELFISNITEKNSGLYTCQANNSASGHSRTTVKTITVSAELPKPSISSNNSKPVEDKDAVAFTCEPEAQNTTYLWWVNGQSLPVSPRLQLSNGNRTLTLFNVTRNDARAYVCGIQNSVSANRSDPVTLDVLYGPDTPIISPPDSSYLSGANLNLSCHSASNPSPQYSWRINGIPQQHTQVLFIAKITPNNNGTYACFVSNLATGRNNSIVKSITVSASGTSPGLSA
Nature of the experiment: antigen binding activity, summary table; assay not named on the sheet.

Experiment [5] deals with T5, human ErbB3/Her3-Fc (Acro biosystem) (human, UniProt P21860 20-643).
T5 construct: Bought; also called human HER3; not shown: Fc part of a bought fusion protein
Nature of the experiment: ELISA, plate coated with human ErbB3/Her3-Fc. In general terms: In an ELISA, binding on a coated surface is turned into a signal by an enzyme label.

Experiment [6] deals with T2, hEGFR-Fc (Sino Biological). In words: ELISA, plate coated with human EGFR-Fc, anti-His-HRP detection.
Experiment [7] addresses T1, Human VEGFR2-Fc (Sino Biological). In words: antigen binding activity, summary table; assay not named on the sheet.

Positions count from the first letter of the chain named.

T1 sequence (P35968 20-764 limits assumed): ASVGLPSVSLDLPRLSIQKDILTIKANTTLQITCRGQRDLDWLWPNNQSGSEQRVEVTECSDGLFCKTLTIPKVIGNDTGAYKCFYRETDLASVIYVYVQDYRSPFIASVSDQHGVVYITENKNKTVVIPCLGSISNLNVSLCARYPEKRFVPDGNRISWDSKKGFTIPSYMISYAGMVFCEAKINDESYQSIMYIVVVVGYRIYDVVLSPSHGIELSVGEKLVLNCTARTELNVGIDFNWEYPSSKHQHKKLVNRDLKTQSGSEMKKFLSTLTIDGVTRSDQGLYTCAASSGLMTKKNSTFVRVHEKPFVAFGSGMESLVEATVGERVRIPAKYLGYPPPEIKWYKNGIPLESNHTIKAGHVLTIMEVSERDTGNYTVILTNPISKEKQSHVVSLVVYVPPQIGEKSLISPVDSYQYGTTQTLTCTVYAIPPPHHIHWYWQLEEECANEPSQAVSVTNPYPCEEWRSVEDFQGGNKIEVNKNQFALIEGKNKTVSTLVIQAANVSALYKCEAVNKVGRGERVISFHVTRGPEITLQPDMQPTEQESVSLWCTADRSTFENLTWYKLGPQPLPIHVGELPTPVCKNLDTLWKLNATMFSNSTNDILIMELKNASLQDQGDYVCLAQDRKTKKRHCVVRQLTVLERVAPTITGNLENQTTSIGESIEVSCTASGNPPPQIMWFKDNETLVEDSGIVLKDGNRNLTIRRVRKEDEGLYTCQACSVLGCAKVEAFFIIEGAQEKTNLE

B1: 4VGR38-CD-H (VHH)
VHH: QVQLQESGGGSVQAGGSLTLSCEVSGYSVNSNSMGWFRQAPGKEREGVAGINEGGVSTYYANFVQGRFTISQDNAKNMVYLQMNSLKPEDTAIYYCAAGAPDPPPLIESIVKYWGQGTQVTVSS
notes: sdAb-cytosine deaminase fusion with C-terminal His-tag; Built from parts
With B1, in experiment [1], the binding result is listed as “binds”.

B2: DOM-16-39-CD-H (VHH)
sdAb-CD fusion: MDIQMTQSPTSLSASVGDRVTITCRASQWIGNLLDWYQQKPGEAPKLLIYYASFLQSGVPSRFSGGGFGTDFTLTISSLQPEDFATYYCQQANPAPLTFGQGTKVEIKRGGGGSGGGGSGGGGSVTGGMASKWDQKGMDIAYEEAALGYKEGGVPIGGCLINNKDGSVLGRGHNMRFQKGSATLHGEISTLENCGRLEGKVYKDTTLYTTLSPCDMCTGAIIMYGIPRCVVGENVNFKSKGEKYLQTRGHEVVVVDDERCKKIMKQFIDERPQDWFEDIGEGSSHHHHHH
For B2, in experiment [2], the binding result is recorded as “binds”.

B3: 47D5-CDoem3-H (VHH)
VHH: KVQLVESGGGLVQPGGSLRLSCAASGSIFGFNDMAWYRQAPGKQRELVALISRVGVTSSADSVKGRFTISRVNAKDTVYLQMNSLKPEDTAVYYCYMDQRLDGSTLAYWGQGTQVTVSS
notes: as for B1
In the case of B3, the concentration giving a half-maximal response (EC50 (read off the curve)) (usually the concentration needed to bring the measured effect to its halfway point) in experiment [3] was about 0.2 nM.

B4: NbCEA5-CDoem3-H (VHH)
VHH: QVQLVESGGGSVQAGGSLRLSCAASGDTYGSYWMGWFRQAPGKEREGVAAINRGGGYTVYADSVKGRFTISRDTAKNTVYLQMNSLRPDDTADYYCAASGVLGGLHEDWFNYWGQGTQVTVSS
notes: as for B1
Consider B4, for which, in experiment [4], the binding result is given as “binds”.

B5: GE10-CD-H (other)
antigen binding fragment-CD fusion: MLHLWVPEPWTQTGGGGSGGGGSGGGGSVTGGMASKWDQKGMDIAYEEAALGYKEGGVPIGGCLINNKDGSVLGRGHNMRFQKGSATLHGEISTLENCGRLEGKVYKDTTLYTTLSPCDMCTGAIIMYGIPRCVVGENVNFKSKGEKYLQTRGHEVVVVDDERCKKIMKQFIDERPQDWFEDIGEGSSHHHHHH
On to B5, for which the binding result in experiment [2] is on record as “binds”.

B6: GE11-CD-H (other)
antigen binding fragment-CD fusion: B5 antigen binding fragment-CD fusion with L2Y, L4W, W5Y, V6G, P7Y, E8T, W10Q, T11N, Q12V, T13I
Take B6: the binding result in experiment [2] is “no binding”.

B7: 2D3-CDoem3-H (VHH)
VHH: EVQLVESGGSLVQPGGSLRLSCAASGFTFDDYAMSWVRQVPGKGLEWVSSINWSGTHTDYADSVKGRFTISRNNANNTLYLQMNSLKSEDTAVYYCAKNWRDAGTTWFEKSGSAGQGTQVTVSS
notes: as for B1
B7: the “EC50 (read off the curve)” value in experiment [3] was about 0.1 nM.

B8: BCD090-M2-CDoem3-H (VHH)
VHH: QVQLVQSGGGLVQAGGSLRLSCAFSGRTFSMYTMGWFRQAPGKEREFVAANRGRGLSPDIADSVNGRFTISRDNAKNTLYLQMDSLKPEDTAVYYCAADLQYGSSWPQRSSAEYDYWGQGTTVTVSS
Turning to B8, in experiment [5], the “EC50 (read off the curve)” value is about 0.5 nM.

B9: VHH122-CD-H (VHH)
VHH: EVQLQESGGGLVQAGDSLRLSCLVSGRSFNSYTMGWFRQAPGKEREFVAAILWSGPTTYYADSVKGRFTISRDNAKNTVYLQMNSLKPEDTAVYYCAAALGVLVLAPGNVYSYWGQGTQVTVSS
notes: as for B1
Take B9: the “EC50 (read off the curve)” value in experiment [6] was about 0.8 nM.

B10: Inherbin3-CD-H (other)
antigen binding fragment-CD fusion: MLVYNKLTFQLEPNPHTKGGGGSGGGGSGGGGSVTGGMASKWDQKGMDIAYEEAALGYKEGGVPIGGCLINNKDGSVLGRGHNMRFQKGSATLHGEISTLENCGRLEGKVYKDTTLYTTLSPCDMCTGAIIMYGIPRCVVGENVNFKSKGEKYLQTRGHEVVVVDDERCKKIMKQFIDERPQDWFEDIGEGSSHHHHHH
For B10, in experiment [2], the binding result was “binds”.

B11: Inherbin1-CD-H (other)
antigen binding fragment-CD fusion: B10 antigen binding fragment-CD fusion with L2M, V3L, K6P, L7T, F9Y, L11M, E12D, P13V, H16E, T17G
Turning to B11, the binding result in experiment [2] was “no binding”.

B12: 3VGR19-CD-H (VHH)
VHH: QVQLQESGGGSVQAGGSLRLSCVASGYSVSKNSMGWFRQAPGKEREGVAGINEGGTATYYANSVKGRFTISQDNAKNTVYLQMNTLKPEDTAIYYCAAGSPDPPPLIESVVKYWGQGTQVTVSS
notes: sdAb-cytosine deaminase fusion with C-terminal His-tag, made in E. coli; Built from parts; An N-terminal Met may precede the sdAb
For the molecule B12, the binding result in experiment [7] is listed as “binds”.

B13: 3VGR10-CD-H (VHH)
VHH: B12 VHH with K76R
On to B13, for which the binding result in experiment [7] was “binds”.

B14: 4VGR17-CD-H (VHH)
VHH: B12 VHH with E53Y, S109G
notes: as for B1
For B14, in experiment [1], the “EC50 (read off the curve)” value was about 0.02 mg/L.

B15: 3VGR17-CD-H (VHH)
VHH: QVQLQESGGGSVQAGGSLRLSCAASGYTYCSYDMGWYRQAPGKEREFVSAIDNYGRTGYADSVKGRFTISQDNAKNTSYLQMNSLKPEDTAIYYCKVDVCPDPSRPGRPGYWGQGTQVTVSS
Consider B15, for which the binding result in experiment [7] is listed as “binds”.

These data come from patent US20220056149A1 (LUMOSA THERAPEUTICS, published 2022).
